Test results as given in the DeepSol protein solubility set.

Assay: soluble on expression in E. coli; label from the status in PepcDB or PDB records

Row | Sequence | soluble on expression in E. coli
1 | MSLRRILITGANGFVGQILCSMLRQAGHHVIALVGAESALSSHADESVRCDIRDASGLEQALCRAAPTHVVHLAAITHVPTSFNNPVLTWQTNVMGSVNLLQALQRSAPEAFVLFVSSSEVYGETFKQGTALGEDSACKPMNPYAASKLAAEAAFNEYFRQGRKGIVVRPFNHIGARQSPDFATASFARQIALIEAGKQAPQLKVGNLQAARDFLDVHDVCDAYVALLQLADEQERYPGCLNICRGEPTSLQTLLTQLMALSSSVIEVTIDPDRMRPSDIPSAFGNNSAMRCATGWKPKTKLDDTLEALLNYWRHEVISAEGHHHHHH | soluble
2 | MSLTIAHDIDLSAVLAERLTTTHPDVLRELLAAFIHALMGAEADAVCGAGYGQRSSERTNSRNGYRHREFDTRAGTLDLAIPKLRQGSYFPDWLLERRKRAERALTTVVATCYLLGVSTRRMDKLVETLGITSLSKSQVSVMAKELDAAVEAFRTRPLDAGPYTFMAADALVLKVREAGRVVNVHALIATGVNAEGYREILGIDVTTTEDGAGWLTFLRSLTARGLSGVRLVTSDAHAGLVAAIGATLPGASWQRCRTHYATNLMAITPKSSWPWVRTLLHSVFDQPDAGSVAAQYDRIIDALADKLPKVADHLEDTRADLLAFTAFPKQIWRQIWSNNPQVICSPRDGVFDVRHEVLRSQVLRAGHAYLQLSRRQEPAEGRCRLHELSRRSRCVSRGEGHHHHHH | not soluble
3 | MSSVYTMKRIWLQKDKKAYQAWRELMEKAELQTTEALDYTVGIYDDTALIASGSLSGKTIKCVAVCKKYQSENLLTQLVVHLLEKLREENQLHSFLYTKPKNEQIFQSLGFQKVVANQEVLFMEQGKPDFADYLGYLTQHKKAGPASSIVMNANPFTKGHQYLVEKAAQESPHVYVFVLSEDKSLFSKEARFAMVQKGVAHLPNVTVLSTEDYLVSSATFPTYFLKEKAPLEVAAIQATLDATLFKERIAPILEIQQRYVGEEPYSEVTAVYNQAMQQVFGQTITLTIVPRLASDGELISATKVRKAMAEGDKETLKKFLPATSYQYLVEHKKLMR | not soluble
4 | MGSDKIHHHHHHLDTIPTTYVDAGSVFGKTGDAEKVLNGGWNYLMETFNSYANPGYGAMLRANDAMGSDVVLNSKYGFRTHNEFSAIYGKGGTNTLSWLLAYRVINDCNGVLDNIDAAEGTQADRNRIKGQALALRGFLYLHLASCYSFAIDKDPDAVCAPIYTQSTDETIAAEGKPASSVSEVYAQSINDLEEALELIPETYVRDAKHKIDNEVVLGILSRACLYARQWEKAKTYSDKLLAKDNYLMTESEYKAGFNSVDNKEWIWGHAQTNDQSNASYQFHYLDTTTKGSYYYSFNVDPYFRDLFEDGDYRKEMLFWATDPGADVESAAYVWMRNSKFRFRDIENQLGDIVLMRVAEIYLINAEAKAHLNDPDAINKLNDLKTARGAKTIHTNLSQQDLLETIWLERRKELWGEGFSLIDIIRNQQTVVRNAYPEGPIDYIYTDENGQTHTLKKKTQGHRFFNFPDKSAFCPNSKYYLYRITDSEELANKNLYKDHPKLSIYTK | not soluble
5 | MSLDNKRRFALVGTGNRGTTMWGRDLLAGWRGLVDLVAIADTNALRAERARTMIATNAPVYGNVDAMLAETRPDLVIVCTPDDTHDDIVVRALESGADVITEKPMSTTVEKIRRILDAEKRTGRRVDVSFNYRFAPTAARIKELLNAGEIGRVTSVDFHWYLDTRHGADYFRRWHAYAEHSGSLFVHKATHHFDLLNWYLDSDPEAVSAFADLQMYGRRGPFRGPRCKLCPHKSECDFYLDLEADPFLDSLYEEPSEIDSYFRDGCVFREDIDIPDTMVANIRYRNDVHVSYSLNTFQPIEGHHIAFNGTKGRIELRQYEDQPWETPPEDEILLVRNFPKGKPAMERITVPHFPGGHYGGDDRLRNTLFEPDAKDPLGQRAGARAGAMSVLCGIAALQSSRTGKIVRLADLMPELFTDGAQPMRERLKETCSREGHHHHHH | soluble
6 | MAHHHHHHMEKVITMREIITNTRKIKLHENFLEDCNLKDIFYNGLETVNCGYNDYVNMKTWLFVLSEKMFRTDYEELAYVACDALKVLLCNSKFLNVIIFKLLRKKLEKEILKIMGICCLTVASRMQQINESTCFKVILELSNLKDKLNEFNIRQIEMDVFVTLAHSGFCFEKIITPVNELNQIMKFLETYENFFDNNFNTFKSSSNLMLKIIYCMVPVFNMNIYNYSIVNYALRLFIQDNDKYEFIFEKLKQNYQDKEIIHISNFQNHMHNIINAFKNTSIFSAKDSILNNQLDVQLFEEINKKIEAYYEQKHKT | not soluble
7 | MRIEKVDTFPLFHKLSSPYGDANGLKSYRTSYLIRITTASGLTGWGECADWLPALDAGFKKRIIPYLIGKEASNRTELITVIKKWHQRAASAVSMALTDITAKKAGLSVCELWGGKLREQIPVYASFQSYSDRPDWSRHSLRLIEKAVRAGFKAVKLKAGGKMFSEDLAHIQAFQEMTGQSTGLILDANQSYDQAAARKWETWFSGWQNVLWFEEPMPFDDLAEYRMLRSALSVPVAGGENVKGAKPFLPIFLENAVDIAQPDVMHCEGTDEFQTVLKLARHFGKRVSPHSYDGGLSRIYAAFGQACLPHWTKMDGEDIEPLEWDAMENPFAQIVPVSIKDGCIQVPDKIEIDTELVEAYVWDGSSYI | soluble
8 | MVVQSDGSPEAASYTLIHFWAAYDGESRAGNVRWSRYFAKRPDSRVRYVGVSMDKNLSVFTNTLAFDQIDLSAQRLVENSKRDQMLNIYGLKIRFHSYLVDAHGIIRAVDPNPDQLETIL | not soluble
9 | MALEESLIDLERFCAKAWRVYAKEDPLSHLSFNEFDYLRVIQVFPEGVRITDLADELQVTKPSASNMVVRLEKKGLVKRIACNEDARAKRVLLTEDVAEKMSLEQIVYKDISDQMMLKLNEQEAKQLQSLLNKALGN | not soluble
10 | MGSDKIHHHHHHADVIVPEQPVPVVAVPAFSWAGFYLGGQVGNFSSKTALSYLGDEKTGKWTPVKKEFVPKLSGFVGGIYAGSNFDINNGFIIGIDTDVMWSGKKNTKIITWPEVPPEVSSEKKVERVSVGTNQDTSAEVTNGALSHTLKQKWFGATRVKVGFVVDRMMPYIAGGVAYTQLQNIFEKEADKTKKAIDISNVIHDEKKTMVGYTLGGGIDFAMTDNVIVRAEYRYSDYGKKKFADEKIEMRYKTNDFRVGVAYKF | not soluble
11 | MSLELPSFIFQAQENLVERPWGGEWIALLKGFRQSGIGESWEFSAHTSRPSTVLVKGQQLSMIELFSKHRDELLGRAAEKFSKFPILVRLIDAASPTQVHVHPSDKAAESLGEAEGGVESAWLVFNKGKAYAGFKEDVKIEELEEKLKEEDFDFKTLLNTFETTPYDTFVIRPGIPHAGEGLRVLEVSSNSTLAYFFNENDWEKVKKVLNTKKVEEFEVKGKKGMAETENFGLEVVDVTGTAEIKTGGVMNILYAAEGYFILRGKETADLHRGYSCLVPASTDSFTVESERGKIVRIYLKVEGGSHHHHHH | soluble
12 | MKTLEAIKKELGEYEGKNIKIMEVCGTHTSSIFKNGIRSLISPRIQLISGPGCPVCVTASSYIDRLVEYSLKDNHCVLTFGDMMKVKGHKLSLTEAKATGGNVKILYSPLSAVKIAIKSPETQFIFAAVGFETTAPIYALMIEEIIKNNIKNLKLMTSIKTIIPAISYICENEKNIDAFLCPGHVSVIIGSSVYTDMALKYRKPFVIGGFEGGHIIAAIYEIIRQISNNEYSMKNMYQSAVSPEGNQKAKSLIDKYFEAADDYWRGIGIIKNSGLRLRTEYRDFDAGSTIFEDADAAPSGCKCADVILGRITPAQCPLFGKACTPLNAVGACMVSSEGACGIWYRNCEV | soluble
